Columns and labels:
[1] = target: T1, Coagulation Factor Va (FVa), modified (Homo sapiens, UniProt P12259;P12259 P12259:29-737,P12259:1574-2224); assay: filter; HBS 2 mM CaCl2, 0.01% BSA, 0.1% PEG 8000, 37 C; low Bmax; settings: tags: modified FVa, protease-stabilised form described previously; label: 5'-32P
T1 chain 1: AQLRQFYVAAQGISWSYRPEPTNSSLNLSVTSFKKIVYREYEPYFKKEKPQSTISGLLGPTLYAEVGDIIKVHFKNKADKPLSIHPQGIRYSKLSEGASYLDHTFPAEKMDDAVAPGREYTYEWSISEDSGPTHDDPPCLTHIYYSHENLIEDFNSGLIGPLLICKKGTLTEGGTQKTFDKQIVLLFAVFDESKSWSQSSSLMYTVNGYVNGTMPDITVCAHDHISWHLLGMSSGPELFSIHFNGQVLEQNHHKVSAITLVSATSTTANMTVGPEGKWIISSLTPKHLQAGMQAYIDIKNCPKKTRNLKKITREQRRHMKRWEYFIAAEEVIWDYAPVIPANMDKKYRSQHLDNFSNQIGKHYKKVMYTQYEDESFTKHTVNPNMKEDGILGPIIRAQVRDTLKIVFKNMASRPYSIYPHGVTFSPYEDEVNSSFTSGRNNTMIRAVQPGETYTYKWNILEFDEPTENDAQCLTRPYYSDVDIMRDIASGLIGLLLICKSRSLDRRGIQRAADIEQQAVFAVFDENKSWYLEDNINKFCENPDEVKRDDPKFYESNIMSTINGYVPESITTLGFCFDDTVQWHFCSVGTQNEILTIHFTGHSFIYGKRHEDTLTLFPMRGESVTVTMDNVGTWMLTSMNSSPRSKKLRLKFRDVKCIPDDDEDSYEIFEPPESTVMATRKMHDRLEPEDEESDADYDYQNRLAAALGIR
T1 chain 2: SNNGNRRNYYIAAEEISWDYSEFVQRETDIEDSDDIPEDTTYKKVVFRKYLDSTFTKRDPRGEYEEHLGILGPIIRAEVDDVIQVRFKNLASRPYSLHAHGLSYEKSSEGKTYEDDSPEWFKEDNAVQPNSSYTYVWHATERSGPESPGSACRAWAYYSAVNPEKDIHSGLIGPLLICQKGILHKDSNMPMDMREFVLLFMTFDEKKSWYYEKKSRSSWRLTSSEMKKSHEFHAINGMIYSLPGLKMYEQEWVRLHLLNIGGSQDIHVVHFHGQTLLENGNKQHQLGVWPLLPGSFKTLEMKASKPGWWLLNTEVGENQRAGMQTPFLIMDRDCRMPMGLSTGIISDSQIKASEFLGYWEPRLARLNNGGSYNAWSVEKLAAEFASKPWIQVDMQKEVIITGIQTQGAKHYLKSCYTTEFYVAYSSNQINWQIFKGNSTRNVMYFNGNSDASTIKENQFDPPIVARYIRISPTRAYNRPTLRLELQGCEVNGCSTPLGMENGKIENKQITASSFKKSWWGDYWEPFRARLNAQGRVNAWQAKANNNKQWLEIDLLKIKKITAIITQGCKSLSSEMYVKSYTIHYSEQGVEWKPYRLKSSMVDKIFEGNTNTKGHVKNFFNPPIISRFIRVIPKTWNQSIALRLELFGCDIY
Method: (§1) Apparent binding affinity of the aptamers to a purified protein was determined using double filter nitrocellulose binding assays. Binding of the radiolabeled pooled RNA, 11HMT, and 11Mut2 to modified FV and FVa was assessed by incubating trace amounts of radiolabeled RNA with serial dilutions of the purified target protein. For SELEX round binding, pooled RNAs were incubated with modified FV or FVa diluted two fold from 0 nM to 750-800 nM for both proteins. For 11HMT, the radiolabeled RNAs were incubated with both proteins from 0 nM to 500 nM. The radiolabeled RNAs were denatured and re-folded in Hepes-buffered saline (HBS) with CaCl2 (20 mM Hepes pH 7.4, 150 mM NaCl, 2 mM CaCl2), 0.01% bovine serum albumin (BSA), and 0.1% w/v polyethylene glycol 8000 (PEG 8000) by incubating at 95° C. for 3 minutes followed by cooling to room temperature for 3 minutes. The radiolabeled RNA alone was incubated at 37° C. for 5 minutes, followed by incubation with the protein in HBS with CaCl2, 0.01% BSA, and 0.1% w/v PEG 8000 at 37° C. for 5 minutes. […] Bound and unbound RNA was quantitated using a Storm 825 phosphoimager (GE Healthcare, Little Chalfont, Buckinghamshire, UK) and quantified via densitometry.

[2] = target: T2, Coagulation Factor V (FV), modified (Homo sapiens, UniProt P12259 P12259:29-2224); assay: FP_none filter; settings: tags: modified FV, protease-stabilised form described previously; label: 5'-32P
Method: as §1
Target sequence in this assay (P12259 29-2224, one chain of several): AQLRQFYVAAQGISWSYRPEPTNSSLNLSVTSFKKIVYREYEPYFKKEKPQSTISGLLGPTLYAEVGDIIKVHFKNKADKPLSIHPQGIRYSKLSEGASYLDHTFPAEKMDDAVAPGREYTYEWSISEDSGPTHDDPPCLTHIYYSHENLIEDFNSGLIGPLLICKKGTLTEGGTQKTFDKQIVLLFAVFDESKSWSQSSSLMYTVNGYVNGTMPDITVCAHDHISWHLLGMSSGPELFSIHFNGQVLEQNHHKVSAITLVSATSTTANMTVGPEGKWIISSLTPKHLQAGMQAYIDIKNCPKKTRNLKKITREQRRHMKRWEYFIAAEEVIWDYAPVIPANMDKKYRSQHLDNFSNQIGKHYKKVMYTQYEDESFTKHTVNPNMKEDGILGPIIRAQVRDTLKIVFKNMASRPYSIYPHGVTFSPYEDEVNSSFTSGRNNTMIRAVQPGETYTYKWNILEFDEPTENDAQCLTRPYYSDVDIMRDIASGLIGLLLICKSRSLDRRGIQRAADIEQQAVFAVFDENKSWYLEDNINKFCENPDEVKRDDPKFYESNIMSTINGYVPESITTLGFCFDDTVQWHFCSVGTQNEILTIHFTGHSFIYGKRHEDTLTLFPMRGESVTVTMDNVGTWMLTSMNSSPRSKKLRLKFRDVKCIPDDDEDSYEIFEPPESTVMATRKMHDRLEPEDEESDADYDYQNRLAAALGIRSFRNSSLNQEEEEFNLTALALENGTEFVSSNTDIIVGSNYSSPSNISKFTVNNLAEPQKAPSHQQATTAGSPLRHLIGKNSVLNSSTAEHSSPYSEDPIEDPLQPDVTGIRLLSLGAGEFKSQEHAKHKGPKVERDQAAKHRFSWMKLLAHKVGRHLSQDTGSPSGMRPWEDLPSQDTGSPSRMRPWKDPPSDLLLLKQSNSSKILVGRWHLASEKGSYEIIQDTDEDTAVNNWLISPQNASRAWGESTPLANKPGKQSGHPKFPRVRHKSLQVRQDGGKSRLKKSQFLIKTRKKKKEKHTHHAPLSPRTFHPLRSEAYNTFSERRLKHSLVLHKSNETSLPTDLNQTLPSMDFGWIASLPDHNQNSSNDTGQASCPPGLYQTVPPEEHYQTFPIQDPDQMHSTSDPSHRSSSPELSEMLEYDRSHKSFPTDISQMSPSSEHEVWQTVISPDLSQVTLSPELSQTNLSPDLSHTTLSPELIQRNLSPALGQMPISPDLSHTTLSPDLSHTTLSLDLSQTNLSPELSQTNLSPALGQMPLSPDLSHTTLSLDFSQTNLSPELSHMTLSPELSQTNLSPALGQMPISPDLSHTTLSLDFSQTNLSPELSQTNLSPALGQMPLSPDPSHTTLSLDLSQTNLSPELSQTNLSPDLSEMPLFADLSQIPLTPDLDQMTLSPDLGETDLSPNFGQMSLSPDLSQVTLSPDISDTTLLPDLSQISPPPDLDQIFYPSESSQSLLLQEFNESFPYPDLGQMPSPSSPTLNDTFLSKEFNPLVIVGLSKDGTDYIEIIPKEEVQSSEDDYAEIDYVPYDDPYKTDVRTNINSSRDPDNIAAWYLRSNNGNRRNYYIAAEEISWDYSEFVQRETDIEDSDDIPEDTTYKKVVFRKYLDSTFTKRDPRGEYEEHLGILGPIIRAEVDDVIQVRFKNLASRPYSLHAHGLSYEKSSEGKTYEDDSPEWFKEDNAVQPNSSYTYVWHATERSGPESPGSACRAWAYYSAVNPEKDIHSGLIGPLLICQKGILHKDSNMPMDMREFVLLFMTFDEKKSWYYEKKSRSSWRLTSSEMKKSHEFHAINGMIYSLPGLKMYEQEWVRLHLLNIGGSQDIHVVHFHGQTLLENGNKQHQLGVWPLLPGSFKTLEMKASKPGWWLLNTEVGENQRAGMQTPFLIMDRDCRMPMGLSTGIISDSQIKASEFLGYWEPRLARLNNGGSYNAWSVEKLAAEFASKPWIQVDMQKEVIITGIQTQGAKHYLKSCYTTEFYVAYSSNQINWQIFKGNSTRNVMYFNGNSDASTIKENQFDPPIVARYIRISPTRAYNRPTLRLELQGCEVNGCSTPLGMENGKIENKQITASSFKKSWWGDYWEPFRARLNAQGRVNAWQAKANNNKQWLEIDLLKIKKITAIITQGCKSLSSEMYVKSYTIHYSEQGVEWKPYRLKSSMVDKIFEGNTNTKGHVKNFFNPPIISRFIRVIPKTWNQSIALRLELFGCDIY

[3] = target: T2, Coagulation Factor V (FV), modified; assay: filter; no binding above starting library; settings: tags: modified FV, protease-stabilised form described previously; label: 5'-32P
Method: as §1

[4] = target: T1, Coagulation Factor Va (FVa), modified; assay: filter; no binding above starting library; settings: tags: modified FVa, protease-stabilised form described previously; label: 5'-32P
Method: as §1

[5] = target: T1, Coagulation Factor Va (FVa), modified; assay: SPR; three runs: 6.222, 5.408, 5.115; text ~6 nM; HBS 2 mM CaCl2, 25 C; settings: tags: modified FVa, protease-stabilised form described previously; label: 5'-biotin
Method: (§2) The T18.3 binding constants were determined using surface plasmon resonance (SPR) with a BiaCore3000 (GE Healthcare). This method was used to determine apparent KDs for T18.3 to modified FV, modified FVa, the FV heavy chain, and the FV light chain. The T18.3 aptamer was synthesized (Biosynthesis, Lewisville, Tex.) and included a biotin and PEG 11 spacer on the 5′ end to allow for immobilization of the aptamer on a biotin CAPture chip kit (GE Healthcare). Prior to chip coating, the biotinylated T18.3 was refolded using the same protocol as the in vitro transcribed T18.3 by heating to 95° C. for 3 minutes followed by 3 minutes at room temperature. Aptamer conjugation onto the chip was achieved by flowing aptamer solution over the chip at a rate of 2 μL/min for 5 minutes. For binding to the modified FV, FVa, and purified FV heavy chain, 5.0 ng of aptamer was coated onto the chip. For the purified FV light chain experiments 15.3 ng of aptamer was coated onto the chip. Binding experiments using SPR was performed at 25° C. in HBS with CaCl2, without the addition of BSA or PEG 8000. […] Increasing concentrations of protein were flowed over the T18.3-coated chip and apparent KD was determined by calculating the differences in response units (RU) from buffer for each protein concentration immediately before the end of each protein injection and plotted as ΔRU versus protein concentration. […]

Factor V light chain = Factor V light chain (UniProt P12259 P12259:1574-2224); assay: SPR; three runs: 1.926, 1.504, 7.997; text ~5 nM; HBS 2 mM CaCl2, 25 C; settings: label: 5'-biotin
Method: as §2

[6] = target: T2, Coagulation Factor V (FV), modified; assay: SPR; three runs: 16.55, 10.00, 8.213; text ~10 nM; HBS 2 mM CaCl2, 25 C; settings: tags: modified FV, protease-stabilised form described previously; label: 5'-biotin
Method: as §2

Factor Xa = Factor Xa (Homo sapiens, UniProt P00742;P00742 P00742:41-179,P00742:235-488); assay: filter; no binding up to 1000 nM FXa; settings: label: 5'-32P
Sequence of Factor Xa (P00742 41-179, chain 1 of 2): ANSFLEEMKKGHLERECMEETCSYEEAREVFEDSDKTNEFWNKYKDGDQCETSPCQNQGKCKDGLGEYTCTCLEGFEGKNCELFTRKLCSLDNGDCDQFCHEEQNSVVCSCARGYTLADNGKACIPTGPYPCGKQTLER
Sequence of Factor Xa (P00742 235-488, chain 2 of 2): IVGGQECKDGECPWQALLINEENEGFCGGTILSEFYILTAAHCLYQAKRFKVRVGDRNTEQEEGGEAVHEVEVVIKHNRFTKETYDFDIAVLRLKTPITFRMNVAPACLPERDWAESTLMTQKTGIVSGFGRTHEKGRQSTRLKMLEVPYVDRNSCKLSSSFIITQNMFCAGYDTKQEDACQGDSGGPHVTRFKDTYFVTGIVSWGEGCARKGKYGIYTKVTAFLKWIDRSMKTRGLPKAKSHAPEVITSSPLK

[7] = target: T2, Coagulation Factor V (FV), modified; assay: filter; no binding above starting library; settings: tags: modified FV, protease-stabilised form described previously; label: 5'-32P; remark: listed apart in the source
[8] = target: T2, Coagulation Factor V (FV), modified; assay: filter; lead clone chosen by aPTT activity and binding to FV and FVa; no value given; settings: tags: modified FV, protease-stabilised form described previously; label: 5'-32P
[9] = target: T1, Coagulation Factor Va (FVa), modified; assay: as above; settings: tags: modified FVa, protease-stabilised form described previously; label: 5'-32P
[10] = target: T1, Coagulation Factor Va (FVa), modified; assay: filter; lead clone; also at 2.0 uM inhibits FVa-phospholipid docking by light scattering (p125); settings: tags: modified FVa, protease-stabilised form described previously; label: 5'-32P

B1: 11HMT (ssRNA)
RNA: GGAUCCAACGCACAAUUACGUGCCUUGUCAGACGACUCGCUGAGGAUCC
modifications: 2'-F C and U
Kd [1]: 0.822 nM | Kd [2]: 23.2 nM

B2: 11Mut2 (ssRNA)
RNA: GGAUCCAACGCACAAUUACGUGCCGGUUCAGACGACUCGCUGAGGAUCC
modifications: 2'-F C and U
binding result [3]: no binding | binding result [4]: no binding

B3: T18.3 biotinylated (ssRNA)
RNA: GGACUUGGAUAACCUCACCGCAAUGGCGGCUUGUCAGACGACUCGCUGAGGAUCCGAG
modifications: 2'-F C and U; 5' biotin and PEG11 spacer
Kd [5]: 5.64 nM | Kd (Factor V light chain): 3.47 nM | Kd [6]: 11.7 nM

B4: T18.3 (ssRNA)
RNA: GGACUUGGAUAACCUCACCGCAAUGGCGGCUUGUCAGACGACUCGCUGAGGAUCCGAG
modifications: 2'-F C and U
binding result (Factor Xa): no binding

B5: 18.3Mut1 (ssRNA)
RNA: GGACUUGGAUAACCUCACCGCAAUGGCGGAGGGUCAGACGACUCGCUGAGGAUCCGAG
modifications: 2'-F C and U
binding result [7]: no binding | binding result (Factor Xa): no binding

B6: FVa R9c11 (ssRNA)
RNA: GGGAGGACGAUGCGGUCACGCCCCUCAGGAUCCAACGCACAAUUACGUGCCUUGUCAGACGACUCGCUGAGGAUCCGAGA
modifications: 2'-F C and U
binding result [8]: binds | binding result [9]: binds

B7: FV R8c7 (ssRNA)
RNA: GGGAGGACGAUGCGGUCGCCCAAACUUGGAUAACCUCACCGCAAUGGCGGCUUGUCAGACGACUCGCUGAGGAUCCGAGA
modifications: 2'-F C and U
binding result [8]: binds | binding result [10]: binds

Source: patent US20170355992, “FACTOR V/Va-TARGETING APTAMER COMPOSITONS AND METHODS OF USING THE SAME” (Duke University, published 2017)
